In article PMC7901269 (Cell, 2021):

B1: chimera 253H/165L (Fab, V domains shown)
VH: not shown
VL: DIVMTQSPGTLSLSPGERATLSCRASQSVRSSYLAWYQQKPGQAPRLLIYGASRRGTGIPDRFSGSGSGTDFTLTISRLEPEDFAVYYCQQYGSSPWTFGQGTKVEIK
notes: also called 253-165; 353/165; source: from Dejnirattisai et al., 2021; human mAbs expressed in HEK293T cells
B2: mAb 88 (Fab, V domains shown)
VH: QLQLQESGPGLVKPSQTLSLTCTVSGGSISSGSYNWTWIRQPAGKGLEWIGRIYNSGSTNYNPSLKSRVTISVDTSKNQLSLKVRSVTAADTAVYYCARHCSGGTCYPKYYYGMDVWGQGTTVTVSS
VL: QSALTQPPSVSEAPRQRVTISCSGSSSNIGNNAVNWYQQFPGKAPKLLIYYDDLLPSGVSDRFSGSKSGTSASLAISGVQSEDEADYYCAAWDDSLNVVVFGGGTKLTVL
B3: mAb 150 (Fab, V domains shown)
VH: QVQLVESGGGLIQPGGSLRLSCAASGVTVSSNYMSWVRQAPGKGLEWVSIIYSGGTTYYADSVKGRFTISRDSSMNTLYLQMNSLRAEDTAVYYCARDLMVYGIDVWGQGTTVTVSS
VL: EIVMTQSPSSLSASVGDRVTITCRASQGISSYLAWYQQKPGKAPKLLIYAASTLQSGVPSRFSGSGSGTDFTLTISSLQPEDFATYYCQQLDSYPPGYTFGQGTKVDIK
notes: source: from Dejnirattisai et al., 2021; human mAbs expressed in HEK293T cells

biological target: His-tagged SARS-CoV-2 RBD (native RBD) (SARS-CoV-2, Wuhan (native RBD), UniProt P0DTC2); experiment: BLI; conditions: both partners purified

Row | Binder | Kd [pM]
1 | B1 | 730
2 | B2 | 640
3 | B3 | 190
